Test results published in the RNAGym collection of RNA variant scans (doi:10.1073/pnas.2313332121).

B1: TPR t1 (parent)
chain: GACCAAUCUGCCCUCAGAGCUCGAGAACAUCUUCGGAUGCAGAGGAGGCAGGCUUCGGUGGCGCGAUAGCGCCAACGUCCUCAACCUCCAAUGCAUCCCACCACAUGAUGAUGCCUGAAGAGCCUUGGUUUUUUG

Variants of: B1
Test: polymerase ribozyme fitness, log enrichment relative to wild type (log ratio); higher = more active; in vitro selection for triplet polymerase activity
How it was run: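 Mutant libraries of both subunits of a heterodimeric triplet polymerase ribozyme were PCR-built, transcribed, and selected once in triplicate, with frozen incubation at −7 °C and capture of gel-excised extended constructs on streptavidin beads before RT-PCR. Illumina sequencing of input and output libraries was filtered to genotypes with ≥10 input reads and ≥1 read per output. Fitness is the logarithm of genotype enrichment over wild-type enrichment, using inverse-variance-weighted replicate averages. The logarithm is base 2.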

| Variant | polymerase ribozyme fitness (log ratio) |
| --- | --- |
| GACCAAUCUGCCCUCAGAGCUCGAGAACAUCUUCGGAUGCAGAGGAGGCAGGCUUCGGUGGCGCGAUAGCGCCAACGUCCUCGACGUCCAAUGCAUCCCACCACAUGAUGAUGCCUGAAGAGCCUUUGUUUCUUG | -2.25 |
| GACCAAUCUGCCCUCAGAGCUCGAGAACAUCUUCGGAUGCAGAGGAGGCAGGCUUCGGUGGCGCGAUAGCGCCAACGUCCUCUACCUCAAAUGCAACCCACCACAUGAUGAUGCCUGAAGAGCCUUGGUUUUUUG | -2.34 |
| GACCAAUCUGCCCUCAGAGCUCGAGAACAUCUUCGGAUGCAGAGGAGGCAGGCUUCGGUGGCGCGAUAGCGCCAACGUCCUCGUCCUCCAAUGCAUCCCACAACAUGAUGAAGCCUGAAGAGCCUUUGUUUUUUG | -3.04 |
| GACCAAUCUGCCCUCAGAGCUCGAGAACAUCUUCGGAUGCAGAGGAGGCAGGCUUCGGUGGCGCGAUAGCGCCAACGUCCUCUACCUCUAAUGCACCCCACCACAUGAUGAUGCCUGAAGAGCCUUGGUUGUUUG | -1.02 |
| GACCAAUCUGCCCUCAGAGCUCGAGAACAUCUUCGGAUGCAGAGGAGGCAGGCUUCGGUGGCGCGAUAGCGCCAACGUCCUUAACCUCCAAUGCAGCCCACCACAUGAUGAUGCCUGAAGAGCCUUGGUUUUUUG | -1.12 |
| GACCAAUCUGCCCUCAGAGCUCGAGAACAUCUUCGGAUGCAGAGGAGGCAGGCUUCGGUGGCGCGAUAGCGCCAACGUCCUCCACCUCCAAUGCAUCCCAACACAUGAUGAUGCCUGAAGAGCCUUGGUUUUUUG | -1.18 |
| GACCAAUCUGCCCUCAGAGCUCGAGAACAUCUUCGGAUGCAGAGGAGGCAGGCUUCGGUGGCGCGAUAGCGCCAACGUCCUCCACCUCUAAUGCCUCCCACCACAUGAUGAUGCCUGAAGAGCCUUGGUUUUUUG | -0.794 |
| GACCAAUCUGCCCUCAGAGCUCGAGAACAUCUUCGGAUGCAGAGGAGGCAGGCUUCGGUGGCGCGAUAGCGCCAACGUCCUCUACCUCCAAUGCAUCCCACCACAUGAUGAUGCCUGAAGAGCCUUGGUUUUUUG | -0.119 |
| GACCAAUCUGCCCUCAGAGCUCGAGAACAUCUUCGGAUGCAGAGGAGGCAGGCUUCGGUGGCGCGAUAGCGCCAACGUCCUCGACCUCCAAUGCAUCCCACCACAUGAUGAUGCCUGAAGAGCCUUGGUUUUUUG | -0.489 |
| GACCAAUCUGCCCUCAGAGCUCGAGAACAUCUUCGGAUGCAGAGGAGGCAGGCUUCGGUGGCGCGAUAGCGCCAACGUCCUCCACCUCCAAUGCAUCCCACCACAUGAUGAUGCCUGAAGAGCCUUGGUUUUUUG | -0.225 |
| GACCAAUCUGCCCUCAGAGCUCGAGAACAUCUUCGGAUGCAGAGGAGGCAGGCUUCGGUGGCGCGAUAGCGCCAACGUCCUCCCCCUCCAAUGCAUCCCACCACAUGAUGAUGCCUGAAGAGCCUUGGUUUUUUG | -0.925 |
| GACCAAUCUGCCCUCAGAGCUCGAGAACAUCUUCGGAUGCAGAGGAGGCAGGCUUCGGUGGCGCGAUAGCGCCAACGUCCUCUACCUCCAAUGCAUCCCACCACAUGAUGAUGACUGAAGAGCCUUGGUUUUUUG | -1.1 |
| GACCAAUCUGCCCUCAGAGCUCGAGAACAUCUUCGGAUGCAGAGGAGGCAGGCUUCGGUGGCGCGAUAGCGCCAACGUCCUCCACCUCCAAUGCAUCCCACCACAUGAUGAUGCCUGAAGAGCCUCGGUUUUUUG | -1.26 |
| GACCAAUCUGCCCUCAGAGCUCGAGAACAUCUUCGGAUGCAGAGGAGGCAGGCUUCGGUGGCGCGAUAGCGCCAACGUCCUUAACCUCCAAUGCAUCCCACCACAUGAUGAUGCCUGAAGAGCCUUUGUUUUUUG | -0.724 |
| GACCAAUCUGCCCUCAGAGCUCGAGAACAUCUUCGGAUGCAGAGGAGGCAGGCUUCGGUGGCGCGAUAGCGCCAACGUCCUCACCCUCAAAUGCAUCCCACCACAUGAUGAUACCUGAAGAGCCUUGGUUUUUUG | -2.63 |
| GACCAAUCUGCCCUCAGAGCUCGAGAACAUCUUCGGAUGCAGAGGAGGCAGGCUUCGGUGGCGCGAUAGCGCCAACGUCCUUAACCUCCAAUGCAUCCCACCACAUGAUGAUGCUUGAAGAGCCUUGGUUUUUUG | -1.02 |
| GACCAAUCUGCCCUCAGAGCUCGAGAACAUCUUCGGAUGCAGAGGAGGCAGGCUUCGGUGGCGCGAUAGCGCCAACGUCCUUAACCUCCAAUGCAUCCCACCACAUGAUGAAGCCUGAAGAGCCUUGGUUUUUUG | 1.08 |
| GACCAAUCUGCCCUCAGAGCUCGAGAACAUCUUCGGAUGCAGAGGAGGCAGGCUUCGGUGGCGCGAUAGCGCCAACGUCCUUAACCUCCAAUGCAUCCCACCACAUGAUGAUGCCUGAAUAGCCUUGGUUUUUUG | 0.312 |
| GACCAAUCUGCCCUCAGAGCUCGAGAACAUCUUCGGAUGCAGAGGAGGCAGGCUUCGGUGGCGCGAUAGCGCCAACGUCCUCAGCAUCCAAUGCACCCCACCACAUGAUGAUACCUGAAGAGCCUUGGUUUUUUG | -2.94 |
| GACCAAUCUGCCCUCAGAGCUCGAGAACAUCUUCGGAUGCAGAGGAGGCAGGCUUCGGUGGCGCGAUAGCGCCAACGUCCUCACCCUCCAAUGCAUCUCACCACAUGAUGAUGCCUGAAGAGCCUUGGUUUUUUG | -1.5 |
| GACCAAUCUGCCCUCAGAGCUCGAGAACAUCUUCGGAUGCAGAGGAGGCAGGCUUCGGUGGCGCGAUAGCGCCAACGUCCUCACCCUACAAUGCAUCCCACCACAUGAUGAUGCCUGAAGAGCCUUGGUUUUUUG | -0.593 |
